{"source": "paper PMC5817926", "about": "(2018)", "target": "ubiquitin polyprotein composed of nine identical repeats (Ubi)9 (UniProt P0CG48 1-76)", "sequence (P0CG48 1-684)": "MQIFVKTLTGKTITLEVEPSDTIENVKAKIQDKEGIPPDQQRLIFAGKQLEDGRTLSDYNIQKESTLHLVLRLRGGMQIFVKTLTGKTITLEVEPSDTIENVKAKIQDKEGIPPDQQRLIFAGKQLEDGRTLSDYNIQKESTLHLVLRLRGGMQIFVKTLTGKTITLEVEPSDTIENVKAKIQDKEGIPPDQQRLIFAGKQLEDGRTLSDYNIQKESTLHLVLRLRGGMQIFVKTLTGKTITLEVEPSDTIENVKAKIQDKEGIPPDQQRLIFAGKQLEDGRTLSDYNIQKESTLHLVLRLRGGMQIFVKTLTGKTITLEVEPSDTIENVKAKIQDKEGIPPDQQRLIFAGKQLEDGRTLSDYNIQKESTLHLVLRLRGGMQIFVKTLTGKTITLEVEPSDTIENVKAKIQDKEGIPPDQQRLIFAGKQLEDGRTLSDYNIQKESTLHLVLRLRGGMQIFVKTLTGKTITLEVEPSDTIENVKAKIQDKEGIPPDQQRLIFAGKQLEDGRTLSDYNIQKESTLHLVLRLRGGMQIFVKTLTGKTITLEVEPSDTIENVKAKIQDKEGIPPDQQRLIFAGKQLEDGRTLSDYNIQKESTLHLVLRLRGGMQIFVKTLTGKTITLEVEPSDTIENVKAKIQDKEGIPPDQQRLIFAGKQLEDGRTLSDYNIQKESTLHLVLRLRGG", "experiment": "extended unfolded state at 170 pN force (single-molecule force spectroscopy)"}
{"binder": "DnaJ (Hsp40) (natural protein) MAKQDYYEILGVSKTAEEREIRKAYKRLAMKYHPDRNQGDKEAEAKFKEIKEAYEVLTDSQKRAAYDQYGHAAFEQGGMGGGGFGGGADFSDIFGDVFGDIFGGGRGRQRAARGADLRYNMELTLEEAVRGVTKEIRIPTLEECDVCHGSGAKPGTQPQTCPTCHGSGQVQMRQGFFAVQQTCPHCQGRGTLIKDPCNKCHGHGRVERSKTLSVKIPAGVDTGDRIRLAGEGEAGEHGAPAGDLYVQVQVKQHPIFEREGNNLYCEVPINFAMAALGGEIEVPTLDGRVKLKVPGETQTGKLFRMRGKGVKSVRGGAQGDLLCRVVVETPVGLNERQKQLLQELQESFGGPTGEHNSPRSKSFFDGVKKFFDDLTR", "values": [{"measurement": "koff", "result": 0.0458, "unit": "s⁻¹"}]}
